Results: paper PMC3716637, “Characterization of the Recombinant Exopeptidases PepX and PepN from Lactobacillus helveticus ATCC 12046 Important for Food Protein Hydrolysis” (PLoS ONE, 2013)
Like-named read-outs stand apart in the source and are kept apart here. Residues, ends and D or L forms follow the SMILES beside them.

Legend:
[1] = target: T1, PepN (general aminopeptidase N) (Lactobacillus helveticus, UniProt S4THV9); assay: product inhibition of H-Ala-pNA hydrolysis; […] residual activity at […]; format: biochemical; conditions: read-out: % residual activity at 10 mM
T1 construct: His-tagged recombinant full-length PepN (monomer)
T1 sequence (S4THV9 1-844): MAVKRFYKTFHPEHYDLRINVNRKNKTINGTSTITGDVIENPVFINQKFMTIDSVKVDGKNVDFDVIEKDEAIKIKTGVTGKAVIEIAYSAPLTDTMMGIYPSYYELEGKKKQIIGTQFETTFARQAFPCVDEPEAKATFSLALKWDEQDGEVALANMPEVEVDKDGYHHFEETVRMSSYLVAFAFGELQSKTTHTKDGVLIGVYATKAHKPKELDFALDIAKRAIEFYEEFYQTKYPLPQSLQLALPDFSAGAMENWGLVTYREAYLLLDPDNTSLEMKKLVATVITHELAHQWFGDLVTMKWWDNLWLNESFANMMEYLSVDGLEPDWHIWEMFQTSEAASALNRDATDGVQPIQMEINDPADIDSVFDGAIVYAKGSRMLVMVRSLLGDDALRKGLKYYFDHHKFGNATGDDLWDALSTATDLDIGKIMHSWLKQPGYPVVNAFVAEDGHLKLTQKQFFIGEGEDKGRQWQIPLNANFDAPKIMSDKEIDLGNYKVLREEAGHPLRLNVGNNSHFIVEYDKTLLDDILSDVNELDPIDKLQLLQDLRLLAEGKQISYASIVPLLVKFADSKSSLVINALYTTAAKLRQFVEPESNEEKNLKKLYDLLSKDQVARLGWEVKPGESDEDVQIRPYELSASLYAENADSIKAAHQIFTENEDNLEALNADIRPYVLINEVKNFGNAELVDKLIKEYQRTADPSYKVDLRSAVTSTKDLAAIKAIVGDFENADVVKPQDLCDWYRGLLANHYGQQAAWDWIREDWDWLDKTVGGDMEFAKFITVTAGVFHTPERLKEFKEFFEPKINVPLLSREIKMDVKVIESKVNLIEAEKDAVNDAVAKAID

[2] = target: T2, PepX (X-prolyl dipeptidyl aminopeptidase) (Lactobacillus helveticus, UniProt Q59485); assay: inhibition of H-Ala-Pro-pNA hydrolysis; […] residual activity at […], […] at […]; format: biochemical
T2 construct: His-tagged recombinant full-length PepX (homodimer)
T2 sequence (Q59485 1-793): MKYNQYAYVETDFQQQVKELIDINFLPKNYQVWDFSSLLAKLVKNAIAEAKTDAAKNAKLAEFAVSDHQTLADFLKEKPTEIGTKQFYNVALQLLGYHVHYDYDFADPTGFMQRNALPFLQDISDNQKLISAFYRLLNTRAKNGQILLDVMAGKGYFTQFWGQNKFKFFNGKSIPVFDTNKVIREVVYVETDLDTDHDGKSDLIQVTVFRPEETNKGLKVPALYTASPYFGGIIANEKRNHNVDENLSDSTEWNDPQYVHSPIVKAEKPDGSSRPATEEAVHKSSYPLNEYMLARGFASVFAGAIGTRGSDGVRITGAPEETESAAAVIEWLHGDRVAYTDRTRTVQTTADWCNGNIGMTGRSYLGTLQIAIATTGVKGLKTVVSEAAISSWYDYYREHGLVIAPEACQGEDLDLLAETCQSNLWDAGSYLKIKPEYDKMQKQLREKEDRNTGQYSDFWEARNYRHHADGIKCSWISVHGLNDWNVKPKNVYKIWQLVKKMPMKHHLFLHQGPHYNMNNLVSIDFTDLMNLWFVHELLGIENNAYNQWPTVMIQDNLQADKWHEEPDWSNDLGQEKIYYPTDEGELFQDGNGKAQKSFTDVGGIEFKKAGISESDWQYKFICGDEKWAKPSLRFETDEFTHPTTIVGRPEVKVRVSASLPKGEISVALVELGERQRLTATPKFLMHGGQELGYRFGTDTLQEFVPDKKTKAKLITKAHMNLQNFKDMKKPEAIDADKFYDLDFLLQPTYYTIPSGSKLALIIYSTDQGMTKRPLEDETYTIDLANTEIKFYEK

[3] = target: T1, PepN (general aminopeptidase N); assay: product inhibition of H-Ala-pNA hydrolysis; […] residual activity at […]; format: biochemical; conditions: read-out: % residual activity at 10 mM; remark: listed apart in the source
[4] = target: T2, PepX (X-prolyl dipeptidyl aminopeptidase); assay: product inhibition kinetics with H-Ala-Pro-pNA, Lineweaver-Burk; format: biochemical
purified protein [5] = substrate: N=C(N)NCCC[C@H](N)C(=O)Nc1ccc([N+](=O)[O-])cc1; assay: purified protein; conditions: Zn2+
purified protein [6] = substrate: CC(C)C[C@H](N)C(=O)Nc1ccc([N+](=O)[O-])cc1; assay: purified protein; format: biochemical, Lactobacillus helveticus; conditions: Zn2+
purified protein [7] = substrate: C[C@H](N)C(=O)Nc1ccc([N+](=O)[O-])cc1; assay: purified protein; format: biochemical, Lactobacillus helveticus; conditions: Zn2+
purified protein [8] = substrate: NCCCC[C@H](N)C(=O)Nc1ccc([N+](=O)[O-])cc1; assay: purified protein; format: biochemical, Lactobacillus helveticus; conditions: Zn2+
purified protein [9] = substrate: N[C@@H](Cc1ccccc1)C(=O)Nc1ccc([N+](=O)[O-])cc1; assay: purified protein; format: biochemical, Lactobacillus helveticus; conditions: Zn2+
[10] = substrate: C[C@H](N)C(=O)N1CCC[C@H]1C(=O)Nc1ccc([N+](=O)[O-])cc1; assay: enzyme kinetics, p-nitroaniline release, Hanes plot; Km; format: biochemical, Lactobacillus helveticus

For `N=C(N)NCCC[C@H](N)C(=O)O` [L-Arg], the remaining activity at 10000 µM [1] was 19%.

With `O=S(=O)(F)Cc1ccccc1` [PMSF] the “% residual activity at 10 mM” value [2] was 11.

`N[C@@H](Cc1ccccc1)C(=O)O` [L-Phe] showed a remaining activity at 10000 µM [3] of 24%.

Molecule `N[C@@H](Cc1ccccc1)C(=O)N1CCC[C@H]1C(=O)O` [H-L-Phe-L-Pro-OH] (H-Phe-Pro-OH) has a Ki [4] of 30.1 mM.

B1: PepN (general aminopeptidase N) (Lactobacillus helveticus) (protein)
chain: MAVKRFYKTFHPEHYDLRINVNRKNKTINGTSTITGDVIENPVFINQKFMTIDSVKVDGKNVDFDVIEKDEAIKIKTGVTGKAVIEIAYSAPLTDTMMGIYPSYYELEGKKKQIIGTQFETTFARQAFPCVDEPEAKATFSLALKWDEQDGEVALANMPEVEVDKDGYHHFEETVRMSSYLVAFAFGELQSKTTHTKDGVLIGVYATKAHKPKELDFALDIAKRAIEFYEEFYQTKYPLPQSLQLALPDFSAGAMENWGLVTYREAYLLLDPDNTSLEMKKLVATVITHELAHQWFGDLVTMKWWDNLWLNESFANMMEYLSVDGLEPDWHIWEMFQTSEAASALNRDATDGVQPIQMEINDPADIDSVFDGAIVYAKGSRMLVMVRSLLGDDALRKGLKYYFDHHKFGNATGDDLWDALSTATDLDIGKIMHSWLKQPGYPVVNAFVAEDGHLKLTQKQFFIGEGEDKGRQWQIPLNANFDAPKIMSDKEIDLGNYKVLREEAGHPLRLNVGNNSHFIVEYDKTLLDDILSDVNELDPIDKLQLLQDLRLLAEGKQISYASIVPLLVKFADSKSSLVINALYTTAAKLRQFVEPESNEEKNLKKLYDLLSKDQVARLGWEVKPGESDEDVQIRPYELSASLYAENADSIKAAHQIFTENEDNLEALNADIRPYVLINEVKNFGNAELVDKLIKEYQRTADPSYKVDLRSAVTSTKDLAAIKAIVGDFENADVVKPQDLCDWYRGLLANHYGQQAAWDWIREDWDWLDKTVGGDMEFAKFITVTAGVFHTPERLKEFKEFFEPKINVPLLSREIKMDVKVIESKVNLIEAEKDAVNDAVAKAID
notes: His-tagged recombinant full-length PepN (monomer)
Work on B1 yielded a Km (purified protein [5]) of 140 µM, a Km (purified protein [6]) of 170 µM and a Vmax (purified protein [6]) of 51100 µM/min. The Km (purified protein [7]) was 430 µM, the Vmax (purified protein [7]) was 46100 µM/min and the Km (purified protein [8]) was 140 µM. For the same molecule, the Vmax (purified protein [8]) was 93100 µM/min, the Km (purified protein [9]) was 150 µM and the Vmax (purified protein [9]) was 15200 µM/min.

B2: PepX (X-prolyl dipeptidyl aminopeptidase) (Lactobacillus helveticus) (protein)
chain: MKYNQYAYVETDFQQQVKELIDINFLPKNYQVWDFSSLLAKLVKNAIAEAKTDAAKNAKLAEFAVSDHQTLADFLKEKPTEIGTKQFYNVALQLLGYHVHYDYDFADPTGFMQRNALPFLQDISDNQKLISAFYRLLNTRAKNGQILLDVMAGKGYFTQFWGQNKFKFFNGKSIPVFDTNKVIREVVYVETDLDTDHDGKSDLIQVTVFRPEETNKGLKVPALYTASPYFGGIIANEKRNHNVDENLSDSTEWNDPQYVHSPIVKAEKPDGSSRPATEEAVHKSSYPLNEYMLARGFASVFAGAIGTRGSDGVRITGAPEETESAAAVIEWLHGDRVAYTDRTRTVQTTADWCNGNIGMTGRSYLGTLQIAIATTGVKGLKTVVSEAAISSWYDYYREHGLVIAPEACQGEDLDLLAETCQSNLWDAGSYLKIKPEYDKMQKQLREKEDRNTGQYSDFWEARNYRHHADGIKCSWISVHGLNDWNVKPKNVYKIWQLVKKMPMKHHLFLHQGPHYNMNNLVSIDFTDLMNLWFVHELLGIENNAYNQWPTVMIQDNLQADKWHEEPDWSNDLGQEKIYYPTDEGELFQDGNGKAQKSFTDVGGIEFKKAGISESDWQYKFICGDEKWAKPSLRFETDEFTHPTTIVGRPEVKVRVSASLPKGEISVALVELGERQRLTATPKFLMHGGQELGYRFGTDTLQEFVPDKKTKAKLITKAHMNLQNFKDMKKPEAIDADKFYDLDFLLQPTYYTIPSGSKLALIIYSTDQGMTKRPLEDETYTIDLANTEIKFYEK
notes: His-tagged recombinant full-length PepX (homodimer)
For B2, the Km [10] was 1300 µM.
